The target of data set [1] is T1, full-length mouse CNPase (Mus musculus, UniProt P16330). The data set is described as follows: DSF thermal shift.
The target of data set [2] is T1, full-length mouse CNPase. The data set is described as follows: nanoDSF thermal shift. For orientation: Differential scanning fluorimetry follows unfolding on heating by fluorescence.
For data set [3], the target named is T2, Tom70-EGFP-CNPase-ALFAtag (Mus musculus (assumed)).
T2 chain: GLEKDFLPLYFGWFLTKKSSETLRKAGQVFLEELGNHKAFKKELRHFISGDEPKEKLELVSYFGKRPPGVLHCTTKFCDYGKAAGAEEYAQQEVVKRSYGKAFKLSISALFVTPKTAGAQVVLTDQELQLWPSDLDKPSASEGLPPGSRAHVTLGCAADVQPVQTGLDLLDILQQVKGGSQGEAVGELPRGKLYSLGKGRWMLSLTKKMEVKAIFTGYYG
The data set is described as follows: co-localisation with a target anchored to mitochondria.

For data set [4], the target named is T1, full-length mouse CNPase. The data set is described as follows: enzyme inhibition kinetics.
Data set [5] has as its target T3, mouse CNPase catalytic domain (mouse, UniProt P16330). In words: ITC. Background: ITC needs no label: the signal is the heat of the interaction.
In data set [6] the target is T3, mouse CNPase catalytic domain. In words: SEC-SAXS. (In general: In gel filtration, larger molecules generally elute earlier.)
For data set [7] the target is unchanged. The data set is described as follows: SEC-SAXS. The source holds these as a separate data set.

T1 sequence (P16330 whole entry): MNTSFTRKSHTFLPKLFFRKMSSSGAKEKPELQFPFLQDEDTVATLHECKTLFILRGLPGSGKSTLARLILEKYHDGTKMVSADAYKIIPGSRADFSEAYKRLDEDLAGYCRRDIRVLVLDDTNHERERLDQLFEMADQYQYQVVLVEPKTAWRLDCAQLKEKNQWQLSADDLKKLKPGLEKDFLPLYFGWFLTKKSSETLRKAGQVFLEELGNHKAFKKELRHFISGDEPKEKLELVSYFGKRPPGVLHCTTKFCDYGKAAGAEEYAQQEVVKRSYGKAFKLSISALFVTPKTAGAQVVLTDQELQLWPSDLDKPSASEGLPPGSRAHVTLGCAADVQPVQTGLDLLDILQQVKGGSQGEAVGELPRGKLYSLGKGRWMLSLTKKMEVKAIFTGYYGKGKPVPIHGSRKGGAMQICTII

B1: anti-CNPase nanobody NbCNP 8D (VHH)
VHH: EVQLEESGGGLVQPGGSLRLSCAASGFTFSSYVMSWVRQAPGKGLEWVSDINSGGSRTYYTDSVKGRFTISRDNAKNTLYLQMNSLKPEDTAVYYCARDSLLSTRYLHTSERGQGTQVTVSS
As for B1, the results for the “ΔTm of CNPase” value in the data set with full-length mouse CNPase [1] and with full-length mouse CNPase [2] were 18 °C and 17.7 °C, respectively.

B2: iNbCNP 8D fused to mRuby3 (VHH)
VHH: B1 VHH
For B2, in data set [3], the binding result was “binds”.

B3: anti-CNPase nanobody NbCNP 10E (VHH)
VHH: EVQLEESGGGLVQPGGSLRLSCAVSGITLDDFGIGWFRQAPGKEREGVACISPGYEHIYYADSAKGRFTISRDNAKNTVYLQMNNLKPWDTGVYYCAADNDLPDRLWGGSDWSDPSPYDYWGQGTQVTVSS
Broadly, the Ki is the equilibrium dissociation constant of an inhibitor or competing ligand from its target. A word on the Kd: it is the equilibrium constant for the complex coming apart. Higher therefore signals weaker binding. As usually defined, the stoichiometry N is a count of units in the complex or per binding partner. In the case of B3, the inhibition constant Ki with full-length mouse CNPase [4] turned out to be 0.604 ± 0.0507 nM. For the same molecule, the “ΔTm of CNPase” value with full-length mouse CNPase [1] stood at 4.2 °C. Further, in data set [5], the dissociation constant (Kd) was 9.8 nM, the dH was -12.1 kcal/mol and the “stoichiometry N” value worked out at 0.804. In data set [6], the “stoichiometry N” value is 2 molecules of CNPase per 10E molecule.

B4: iNbCNP 10E fused to mRuby3 (VHH)
VHH: B3 VHH
On to B4, for which the binding result in data set [3] was “binds”.

B5: MaBP-10E (His6-maltose binding protein fusion of NbCNP 10E) (VHH)
VHH: B3 VHH
For the molecule B5, in data set [5], binding was put at a Kd of 13.4 nM, the dH is -18.1 kcal/mol and the “stoichiometry N” value was 0.836.

B6: anti-CNPase nanobody NbCNP 7E (VHH)
VHH: EVQLEESGGGWVHPGGSLRLSCAASGNVFGVNTMAWYRQAPGKQREQRELVASITDYGTTEYADSVKGRFTISGDNAKATVYLQMNSLKPEDTAVYYCNMDLTVMTATSSLYAYDYWGQGTQVTVSS
Consider B6, for which, in the data set with full-length mouse CNPase [1], the “ΔTm of CNPase” value is 2.1 °C. Besides, in data set [5], the affinity, expressed as Kd, was 83.3 nM; the dH was -14.2 kcal/mol; the “stoichiometry N” value was determined as 0.863. Besides, in data set [7], the “stoichiometry N” value turned out to be 1.

B7: anti-CNPase nanobody NbCNP 8C (VHH)
VHH: EVQLEESGGGLVQAGGSLTLSCAASGFTFDDYAMGWYRQAPGKERVGVSCISRTDGYTYYLDSVKGRFTISTDHAKHTVYLQMNNLKPDDTGLYYCAADADPEYGSRCPDPYYGMDYWGKGILVTVSS
With B7, the “ΔTm of CNPase” value with full-length mouse CNPase [1] worked out at 9.2 °C. For the same molecule, in data set [5], the affinity, expressed as Kd, was 16.6 nM; the dH is -7.07 kcal/mol; the “stoichiometry N” value was found to be 0.914. In data set [7], the “stoichiometry N” value is 1.

Values taken from PMC11142274 (bioRxiv, 2024).
